According to US8022177B2, “Peptides and calcium regulation in mammalian cells” (The Board of Trustees of the University of Illinois, priority 2005, dated 2011):
Changes are numbered by the printed parent chain. In names and notes the source's numbering stands. Read-outs that look alike come from different tables or passages of the source. One block for each molecule: values may come before it.

Tests used:
Cav3.1 [1] = biological target: T1, Cav3.1 (Homo sapiens, UniProt O43497); experiment: Whole-cell patch clamp of Cav3.1 current in Cav3.1/HEK cells transfected with chimeras, truncations and point mutants (Example 6); assay type: cell-based; conditions: FIG. 38, FIG. 41
T1 construct: expressed in transfected cells; host or cells: HEK-293, stably transfected
T1 sequence (O43497 whole entry, the tested form may be a part): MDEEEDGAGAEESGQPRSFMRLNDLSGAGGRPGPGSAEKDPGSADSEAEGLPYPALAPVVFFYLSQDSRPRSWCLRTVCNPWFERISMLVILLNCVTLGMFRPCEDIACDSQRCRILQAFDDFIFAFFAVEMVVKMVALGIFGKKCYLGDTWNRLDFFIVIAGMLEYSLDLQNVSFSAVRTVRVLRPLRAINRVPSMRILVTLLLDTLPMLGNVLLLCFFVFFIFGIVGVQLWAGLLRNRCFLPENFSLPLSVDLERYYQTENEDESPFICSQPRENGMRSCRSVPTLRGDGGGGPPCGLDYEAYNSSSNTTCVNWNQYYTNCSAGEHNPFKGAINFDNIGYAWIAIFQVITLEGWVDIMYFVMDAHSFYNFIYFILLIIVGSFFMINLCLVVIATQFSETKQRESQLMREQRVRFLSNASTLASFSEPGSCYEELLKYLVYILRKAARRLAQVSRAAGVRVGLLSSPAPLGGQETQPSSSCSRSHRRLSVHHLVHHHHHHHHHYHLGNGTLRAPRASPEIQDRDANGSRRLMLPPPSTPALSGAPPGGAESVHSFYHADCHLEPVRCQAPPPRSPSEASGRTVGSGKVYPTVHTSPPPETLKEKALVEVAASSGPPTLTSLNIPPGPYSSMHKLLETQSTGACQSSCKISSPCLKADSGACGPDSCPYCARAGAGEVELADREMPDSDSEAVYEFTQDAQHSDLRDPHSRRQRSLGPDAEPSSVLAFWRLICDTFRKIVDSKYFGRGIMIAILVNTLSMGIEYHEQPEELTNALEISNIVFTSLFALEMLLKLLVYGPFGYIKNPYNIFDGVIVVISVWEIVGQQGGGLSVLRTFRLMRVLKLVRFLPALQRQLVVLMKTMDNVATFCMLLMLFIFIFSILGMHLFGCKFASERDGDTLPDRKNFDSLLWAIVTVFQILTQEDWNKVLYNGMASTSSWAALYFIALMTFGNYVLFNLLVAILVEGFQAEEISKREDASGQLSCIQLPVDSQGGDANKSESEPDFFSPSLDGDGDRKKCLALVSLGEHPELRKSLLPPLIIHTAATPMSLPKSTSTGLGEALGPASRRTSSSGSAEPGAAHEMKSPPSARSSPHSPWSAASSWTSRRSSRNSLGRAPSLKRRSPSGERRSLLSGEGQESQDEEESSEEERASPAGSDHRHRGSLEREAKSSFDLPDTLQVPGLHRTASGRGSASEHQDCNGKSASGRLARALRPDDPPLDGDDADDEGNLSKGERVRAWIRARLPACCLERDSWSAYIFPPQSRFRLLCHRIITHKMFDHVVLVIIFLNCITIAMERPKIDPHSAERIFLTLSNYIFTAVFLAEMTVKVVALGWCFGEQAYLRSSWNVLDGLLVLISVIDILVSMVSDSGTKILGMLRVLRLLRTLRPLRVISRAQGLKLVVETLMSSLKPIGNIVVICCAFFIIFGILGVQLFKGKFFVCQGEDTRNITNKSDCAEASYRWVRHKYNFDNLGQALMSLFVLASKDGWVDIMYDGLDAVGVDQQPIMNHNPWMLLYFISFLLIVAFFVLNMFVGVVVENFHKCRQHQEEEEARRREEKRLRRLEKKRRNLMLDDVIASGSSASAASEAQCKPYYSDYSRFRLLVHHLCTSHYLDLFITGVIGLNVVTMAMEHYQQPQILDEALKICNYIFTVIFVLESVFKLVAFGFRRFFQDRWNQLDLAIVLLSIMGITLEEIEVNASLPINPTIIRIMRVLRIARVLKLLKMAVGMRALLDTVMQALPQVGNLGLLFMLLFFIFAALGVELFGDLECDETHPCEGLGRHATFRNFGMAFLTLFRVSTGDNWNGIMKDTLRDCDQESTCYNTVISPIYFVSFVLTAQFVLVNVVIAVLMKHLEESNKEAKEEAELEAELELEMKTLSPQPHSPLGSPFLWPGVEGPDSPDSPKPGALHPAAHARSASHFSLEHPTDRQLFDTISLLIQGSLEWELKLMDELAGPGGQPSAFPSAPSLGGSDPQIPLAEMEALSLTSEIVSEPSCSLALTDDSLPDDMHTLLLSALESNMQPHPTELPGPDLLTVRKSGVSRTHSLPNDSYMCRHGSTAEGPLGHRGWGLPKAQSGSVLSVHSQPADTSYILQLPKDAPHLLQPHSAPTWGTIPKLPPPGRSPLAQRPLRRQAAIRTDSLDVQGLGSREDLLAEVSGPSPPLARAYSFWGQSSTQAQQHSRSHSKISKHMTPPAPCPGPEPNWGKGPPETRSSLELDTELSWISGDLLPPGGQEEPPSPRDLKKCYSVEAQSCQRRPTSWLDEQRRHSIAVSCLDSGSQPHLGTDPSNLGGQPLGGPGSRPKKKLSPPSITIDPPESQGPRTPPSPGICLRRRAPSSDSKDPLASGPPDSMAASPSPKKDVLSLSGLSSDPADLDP
Procedure: Transfection. HEK-293 cells stably transfected with either Cav3.1 or Cav3.2 were transiently transfected, at 50% confluency, with a bicistronic vector encoding both GFP and γ subunit cDNA's using Lipofectamine 2000 reagent (Invitrogen, Carlsbad, Calif.) as per the manufacturer's recommendations. Cells were visualized using an Nikon inverted microscope with an FITC filter.
Electrophysiology. Whole cell Ca^2+ currents were recorded using an Axon Instruments Axopatch-1D amplifier and Clampex 8.0 software. Pipettes were made from boroscillicate glass and had typical resistances of 2-4 Mohms. The pipette solution contained (in mM) 130 NaCl, 10 EGTA, 2 or 5 MgCl2, 1 CaCl2, 10 HEPES, 3 Tris-ATP, and 0.3 Li2GTP. Two different bath solutions were used. The first, used for experiments with γ subunit chimeras, contained (in mM) 130 NaCl, 1 MgCl2, 2 CaCl2, 10 glucose, 10 HEPES, and 0.03 TTX. The second, used for experiments with γ subunit containg point mutations, contained (in mM) 137 NaCl, 1 KCl, 1 MgCl2, 0.33 NaH2PO4, 2 CaCl2, 10 HEPES. All solutions were adjusted to pH 7.4 with NaOH and 280 mOsm with sucrose. No Cl^− currents were evident in any HEK-293 cells line, stably transfected or not, and no attempt was made to eliminate Cl^− currents from data records.
All electrophysiological data are from current records in which voltage offset was adjusted, pipette capacitance and whole cell capacitance were compensated and series resistance was compensated to >80%. Currents were filtered at 10 kHz and recorded at 40 kHz. In some cases, current records were off-line filtered at 1K. Current voltage relationships were recorded using an on-line P/−4 subtraction procedure to eliminate linear capacitative and leakage currents. Only recordings with less than 50 pA leakage current were used.
Several different protocols were used to determine the biophysical characteristics of currents in HEK-293 cells. The voltage dependence of activation was determined using “tail” currents. Cells were depolarized from a holding potential of −100 mV to test potentials ranging from −90 mV to +60 mV. Pulse durations varied and corresponded to the time to peak current measured at the corresponding test potentials. Following the conditioning pulse cells were re-polarized to −60 mV and the amplitude of the resulting “tail” current measured. The voltage dependence of inactivation was measured by depolarizing the cells to voltages ranging from −120 mV to 50 mV for 500 ms to inactivate the Ca^2+ channels. After this conditioning step the membrane was returned to the holding potential (−100 mV) for 3 ms and then depolarized a second time to +20 mV for 150 ms during which time the peak current was measured. Time constants for inactivation were measured by fitting a single exponential equation to the decay phase of currents elicited by voltage steps from −50 to +30 mV from a holding potential of −100 mV. Time constants for deactivation were measured by fitting either a single or a double exponential to the decay phase of tail currents.
To account for the inherent variation in calcium current density in the HEK-Cav3.1 stable cell line the averaged current density of each test group of cells was normalized to the mean current density of a control group of cells. A minimum of 5 cells (typically 7 to 10) from each group was used to calculate the mean current densities of test and control cells. At least two independent transfections were performed for each test condition. […]

Cav3.1 [2] = biological target: T1, Cav3.1; experiment: Whole-cell patch clamp of Cav3.1 current in Cav3.1-HEK cells transfected with γ6, γ4, their first transmembrane domains or point mutants (Example 3); assay type: cell-based; conditions: for Normalized Current Density: relative to vector control (100.0%), Table 3.3
Procedure: Transfection. HEK-293 cells stably transfected with the Cav3.1 α1 subunit were transiently transfected with vectors containing GFP and γ subunits cDNA when the cultures reached 50% confluency. Lipofectamine 2000 reagent (Invitrogen) was used following manufacturer's protocol.
Electrophysiology. Whole cell Ca2+ currents were recorded at room temperature using an Axon Instruments Axopatch-1D amplifier, a Digidata 1200 interface and pClamp8.0 software about 48 hours after transfection. Cell capacitance was typically around 10 pF, but ranged from 5-40 pF. Recording micropipettes were made from borosilicate glass (2-3 Mohms tip resistance), and filled with solution contained (in mM) 130 NaCl, 10 EGTA, 2 MgCl2, 1 CaCl2, 10 HEPES, 3 Tris-ATP, and 0.3 Li2GTP or 0.3 Tris-GTP. Tyrode's solution was used as the bath solution. It contained (in mM) 137 NaCl, 1 KCl, 1 MgCl2, 0.33 NaH2PO4, 2 CaCl2, 10 HEPES. Both solutions were adjusted to pH 7.4 with NaOH and 280 mOsm with sucrose.
We determined the biophysical characteristics of Cav3.1 currents in transfected HEK-293 cells and effects of the first transmembrane domain of γ4 and γ6 on these properties. Test parameters were optimized for studying Cav3.1 current. The time constant (τ) of deactivation (τdeac) was obtained by single exponential fitting of tail currents. For Cav3.1 currents, the cells were clamped at a holding potential of −100 mV, then depolarized to −20 mV for 4 msec, and repolarized to various voltages from −120 mV to −60 mV at 10 mV interval for 150 msec to elicit tail currents.
The voltage dependence of activation was measured using tail currents. For Cav3.1 currents, the cells were clamped at a holding potential equal to −100 mV, and then depolarized briefly to a conditioning potential, varying from −90 mV to +60 mV, and finally clamped at −60 mV before inactivation. Using this protocol, all tail currents are elicited at the same driving force (at −60 mV), so the current amplitude accurately reflects the number of channels opened during the different conditioning potentials.
A series of conditioning prepulses of 500 msec were used to measure voltage dependence of inactivation in our experiments. Channels initially open and then reach steady-state inactivation during the 500 msec long prepulses. The membrane potential is stepped to a fixed test potential of −20 mV, where maximal peak current is elicited. Currents elicited at each test potential reflect how many channels are not in the inactivated state after a steady-state inactivation; that is, how many channels are available to open. The conditioning prepulse potentials were changed from −120 mV to 50 mV, and the test potential is fixed at −20 mV.
Data collection and analysis. To probe the structural features necessary for the function of γ subunits, we are using HEK-293 cell line stably transfected with Cav3.1 α1 subunit. These cells are then transiently transfected with vectors containing various chimeric, truncated or mutant gamma subunits. […] There is inherent variation in calcium current density in the HEK-Cav3.1 stable cell line likely due to differences in the batch used, passenger number, extent of cellular confluence, or for other unknown reasons. The averaged current density of each test group of cells was normalized to the mean current density of a parallel control group of cells plated from the same batch of cells and analyzed on the same day. A minimum of 5 cells (typically 7 to 10) from each group was used to calculate the mean behavior of test and control cells from each days recording. At least two independent transfections were performed for each test condition. Overall, averages were obtained from 21 control groups of cells that had been transfected with empty vector over several months. The data are pooled together to reduce the variance. […] The current density of the control cells over many months justified the pooling of data recorded from different batches of cells transfected with mutated γ subunits. […]

- Effect on Cav3.1 calcium current density (Cav3.1 [1]): also altered Cav3.1 current density
- Inhibitory function on Cav3.1 calcium current (Cav3.1 [2]): did not inhibit calcium current
- Inhibitory function on Cav3.1 calcium current (Cav3.1 [2]; listed as A461): no longer inhibitory
B1: γ6 A46I: γ6 mutant, alanine 46 replaced by isoleucine (protein, UniProt Q9BXT2 1-260, looked up, variant A46I)
Voltage-dependent calcium …: MMWSNFFLQEENRRRGAAGRRRAHGQGRSGLTPEREGKVKLALLLIAVGATLAVLSVGTEFWVELNTYKANGSAVCEAAHLGLWKACTKRLWQADVPVDRDTCGPAELPGEANCTYFKFFTTGENARIFQRTTKKEVNLAAAVIAVLGLAVMALGCLCIIMVLSKGAEFLLRVGAVCFGLSGLLLLVSLEVFRHSVRALLQRVSPEPPPAPRLTYEYSWSLGCGVGAGLILLLGAGCFLLLTLPSWPWGSLCPKRGHRAT

- Normalized current density, % of control (Cav3.1 [1]; Cav3.1/HEK cells): 67.6%±5.9%
- Normalized Current Density (Cav3.1 [2]): 67.6%
- Normalized Current Density (Cav3.1 [2]; listed as G49A): 67.6%±5.9%
B2: γ6 G49A: γ6 with glycine 49 mutated to alanine (protein, UniProt Q9BXT2 1-260, looked up, variant G49A)
Voltage-dependent calcium …: B1 Voltage-dependent calcium … with I46A, G49A

- Effect on Cav3.1 calcium current density (Cav3.1 [1]): does not alter calcium current density
- Inhibitory function on Cav3.1 calcium current (Cav3.1 [2]): no effect on Cav3.1 calcium current
B3: γ1: wild-type calcium channel γ1 subunit (protein, UniProt Q06432 1-222, looked up)
Voltage-dependent calcium …: MSQTKMLKVRVTLFCILAGIVLAMTAVVTDHWAVLSPHMEHHNTTCEAAHFGLWRICTKRIPMDDSKTCGPITLPGEKNCSYFRHFNPGESSEIFEFTTQKEYSISAAAIAIFSLGFIILGSLCVLLSLGKKRDYLLRPASMFYAFAGLCILVSVEVMRQSVKRMIDSEDTVWIEYYYSWSFACACAAFILLFLGGLALLLFSLPRMPRNPWESCMDAEPEH
